The record followed here is US20050176123A1 (MORINAGA MILK INDUSTRY, published 2005).

Holding throughout (test): cell-based or functional assay
For assay [1], the target named is T1, papain (UniProt P00784 134-345).
T1 sequence (looked up): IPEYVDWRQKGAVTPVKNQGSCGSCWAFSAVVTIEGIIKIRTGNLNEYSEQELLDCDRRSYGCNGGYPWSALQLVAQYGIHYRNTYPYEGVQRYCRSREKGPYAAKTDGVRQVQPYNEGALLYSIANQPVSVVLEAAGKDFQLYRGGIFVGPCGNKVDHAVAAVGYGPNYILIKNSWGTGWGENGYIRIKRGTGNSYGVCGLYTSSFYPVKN

The target in assay [2] is cathepsin L.
Assay [3] has as its target cathepsin B.
Assay [4] concerns the target cathepsin B. This is another data set of the same source.
For assay [5], the target named is T1, papain. This is another data set of the same source.
Assay [6] deals with cathepsin L. This is another data set of the same source.
In another assay the target is cathepsin S.

For the molecule YEKYLGPQYVAGITNLK [human lactoferrin peptide Y679-K695], the “inhibition of cysteine protease activity at 10^-4 M inhibitor” value with papain [1] and with cathepsin L [2] was > 50% in each case.

B1: bovine transferrin (manufactured by Nihon Pharmaceutical Co., Ltd.) (other)
chain: DPERTVRWCTISTHEANKCASFRENVLRILESGPFVSCVKKTSHMDCIKAISNNEADAVTLDGGLVYEAGLKPNNLKPVVAEFHGTKDNPQTHYYAVAVVKKDTDFKLNELRGKKSCHTGLGRSAGWNIPMAKLYKELPDPQESIQRAAANFFSASCVPCADQSSFPKLCQLCAGKGTDKCACSNHEPYFGYSGAFKCLMEGAGDVAFVKHSTVFDNLPNPEDRKNYELLCGDNTRKSVDDYQECYLAMVPSHAVVARTVGGKEDVIWELLNHAQEHFGKDKPDNFQLFQSPHGKDLLFKDSADGFLKIPSKMDFELYLGYEYVTALQNLRESKPPDSSKDECMVKWCAIGHQERTKCDRWSGFSGGAIECETAENTEECIAKIMKGEADAMSLDGGYLYIAGKCGLVPVLAENYKTEGESCKNTPEKGYLAVAVVKTSDANINWNNLKDKKSCHTAVDRTAGWNIPMGLLYSKINNCKFDEFFSAGCAPGSPRNSSLCALCIGSEKGTGKECVPNSNERYYGYTGAFRCLVEKGDVAFVKDQTVIQNTDGNNNEAWAKNLKKENFEVLCKDGTRKPVTDAENCHLARGPNHAVVSRKDKATCVEKILNKQQDDFGKSVTDCTSNFCLFQSNSKDLLFRDDTKCLASIAKKTYDSYLGDDYVRAMTNLRQCSTSKLLEACTFHKP
B1: the entries for the “inhibition of cysteine protease activity at 10^-4 M inhibitor” value with cathepsin B [3], with papain [1] and with cathepsin L [2] were > 30%, 40% and > 30%, respectively.

B2: bovine lactoferrin (manufactured by Morinaga Milk Industry Co., Ltd.) (other)
chain: APRKNVRWCTISQPEWFKCRRWQWRMKKLGAPSITCVRRAFALECIRAIAEKKADAVTLDGGMVFEAGRDPYKLRPVAAEIYGTKESPQTHYYAVAVVKKGSNFQLDQLQGRKSCHTGLGRSAGWIIPMGILRPYLSWTESLEPLQGAVAKFFSASCVPCIDRQAYPNLCQLCKGEGENQCACSSREPYFGYSGAFKCLQDGAGDVAFVKETTVFENLPEKADRDQYELLCLNNSRAPVDAFKECHLAQVPSHAVVARSVDGKEDLIWKLLSKAQEKFGKNKSRSFQLFGSPPGQRDLLFKDSALGFLRIPSKVDSALYLGSRYLTTLKNLRETAEEVKARYTRVVWCAVGPEEQKKCQQWSQQSGQNVTCATASTTDDCIVLVLKGEADALNLDGGYIYTAGKCGLVPVLAENRKSSKHSSLDCVLRPTEGYLAVAVVKKANEGLTWNSLKDKKSCHTAVDRTAGWNIPMGLIVNQTGSCAFDEFFSQSCAPGADPKSRLCALCAGDDQGLDKCVPNSKEKYYGYTGAFRCLAEDVGDVAFVKNDTVWENTNGESTADWAKNLNREDFRLLCLDGTRKPVTEAQSCHLAVAPNHAVVSRSDRAAHVKQVLLHQQALFGKNGKNCPDKFCLFKSETKNLLFNDNTECLAKLGGRPTYEEYLGTEYVTAIANLKKCSTSPLLEACAFLTR
Take B2: in the assay with cathepsin B [4], the “inhibition rate (%) at 10^-4M inhibitor” value was 100%, the “inhibition rate (%) at 10^-5M inhibitor” value was found to be 70%, the “inhibition rate (%) at 10^-6M inhibitor” value amounted to 10% and the “inhibition rate (%) at 10^-7M inhibitor” value was 0%. Besides, the “inhibition rate (%) at 10^-8M inhibitor” value in the assay with cathepsin B [4] is 0%. For the same molecule, in the assay with papain [5], the “inhibition rate (%) at 10^-4M inhibitor” value was 100%, the “inhibition rate (%) at 10^-5M inhibitor” value is 100%, the “inhibition rate (%) at 10^-6M inhibitor” value was determined as 100% and the “inhibition rate (%) at 10^-7M inhibitor” value was 40%. The “inhibition rate (%) at 10^-8M inhibitor” value in the assay with papain [5] came to 0%. For the same molecule, in the assay with cathepsin L [6], the “inhibition rate (%) at 10^-4M inhibitor” value amounted to 100%, the “inhibition rate (%) at 10^-5M inhibitor” value turned out to be 100%, the “inhibition rate (%) at 10^-6M inhibitor” value was 100% and the “inhibition rate (%) at 10^-7M inhibitor” value amounted to 20%. In addition, the “inhibition rate (%) at 10^-8M inhibitor” value with cathepsin L [6] came out at 0%. In the assay with cathepsin S, the “inhibition rate (%) at 10^-4M inhibitor” value is 100%, the “inhibition rate (%) at 10^-5M inhibitor” value was 80%, the “inhibition rate (%) at 10^-6M inhibitor” value turned out to be 15% and the “inhibition rate (%) at 10^-7M inhibitor” value was 0%. Moreover, the “inhibition rate (%) at 10^-8M inhibitor” value in the assay with cathepsin S turned out to be 0%.
